Measured values published in PMC4007562.

Tests used:
Assay in all cases: ITC; MicroCal iTC200, 25°C, 20 mM Tris/HCl pH 9.0, 100 mM NaCl; SH3B6, sdAb19 or Neffin at 200 μM injected from the syringe into 20 μM Nef in the cell
[1] = target: HIV-1 NefSF2 (45–210, C59S, C210A) (HIV-1 (SF2)) (UniProt P03407)
[2] = target: HIV-1 Nef_(NL4–3) (41–206, C206A) (HIV-1 (NL4-3))
[3] = target: HIV-1 NefNA7 (41–206, C206A) (HIV-1 (NA7))

Q: With “Neffin_(triple) (Neffin with D60R/G102R/S103E in the sdAb19 subunit) (from UniProt P08631 77-138) (designed binder)” as the substance, how does the Kd [1] read?
A: 23.3 nM

Q: And the dH [1]?
A: -18.1 kcal/mol

Q: What about the stoichiometry N [1] of the same substance?
A: 1.08

Q: Which Kd [1] does the source give for “human Hck-SH3B6 (residues 79–138 of human Hck) (from UniProt P08631 79-138) (designed binder)” here?
A: 18.7 nM

Q: And the dH [1]?
A: -22.5 kcal/mol

Q: What about the stoichiometry N [1] of the same substance?
A: 0.81

Q: With “Neffin (sdAb19–SH3B6 fusion, 8 aa linker) (from UniProt P08631 77-138) (designed binder)” as the substance, how does the Kd [1] read?
A: 1.6 nM

Q: And the dH [1]?
A: -38.3 kcal/mol

Q: What about the stoichiometry N [1] of the same substance?
A: 0.66

Q: What about the Kd [2] of the same substance?
A: 3.9 nM

Q: What about the dH [2] of the same substance?
A: -33.2 kcal/mol

Q: And the stoichiometry N [2]?
A: 0.65

Q: And the Kd [3]?
A: 14.4 nM

Q: What about the dH [3] of the same substance?
A: -34.7 kcal/mol

Q: What about the stoichiometry N [3] of the same substance?
A: 0.67
